# In patent publication US7314753:
# B1: Fab BW 431/26-E. coli β-glucuronidase fusion protein (protein)
# heavy: MEVQLQESGPGLVRPSQTLSLTCTVSGFTISSGYSWHWVRQPPGRGLEWIGYIQYSGITNYNPSLKSRVTMLVDTSKNQFSLRLSSVTAADTAVYYCAREDYDYHWYFDVWGQGSLVTVTVSSASTKGPSVFPLAPCSRSTSGGTAALGCLVKDYFPEPVTVSWNSGALTSGVHTFPAVLQSSGLYSLSSVVTVPSSSLGTQTYTCNVNHKPSNTKVDKRVELGSGSGSMVRPVETPTREIKKLDGLWAFSLDRENCGIDQRWWESALQESRAIAVPGSFNDQFADADIRNYAGNVWYQREVFIPKGWAGQRIVLRFDAVTHYGKVWVNNQEVMEHQGGYTPFEADVTPYVIAGKSVRITVCVNNELNWQTIPPGMVITDENGKKKQSYFHNFFNYAGIHRSVMLYTTPNTWVDDITVVTHVAQDCNHASVDWQVVANGDVSVELRDADQQVVATGQGTSGTLQVVNPHLWQPGEGYLYELCVTAKSQTECDIYPLRVGIRSVAVKGEQFLINHKPFYFTGFGRHEDADLRGKGFDNVLMVHDHALMDWIGANSYRTSHYPYAEEMLDWADEHGIVVIDETAAVGFNLSLGIGFEAGNKPKELYSEEAVNGETQQAHLQAIKELIARDKNHPSVVMWSIANEPDTRPQGAREYFAPLAEATRKLDPTRPITCVNVMFCDAHTDTISDLFDVLCLNRYYGWYVQSGDLETAEKVLEKELLAWQEKLHQPIIITEYGVDTLAGLHSMYTDMWSEEYQCAWLDMYHRVFDRVSAVVGEQVWNFADFATSQGILRVGGNKKGIFTRDRKPKSAAFLLQKRWTGMNFGEKPQQGGKQ
# light: MDIQMTQSPSSLSASVGDRVTITCSTSSSVSYMHWYQQKPGKAPKLLIYSTSNLASGVPSRFSGSGSGTDFTFTISSLQPEDIATYYCHQWSSYPTFGQGTKVEIKRTVAAPSVFIFPPSDEQLKSGTASVVCLLNNFYPREAKVQWKVDNALQSGNSQESVTEQDSKDSTYSLSSTLTLSKADYEKHKVYACEVTHQGLSSPVTKSFNRGEC
# How the values were obtained:
# [1] = biological target: CEA (carcino-embryonic antigen) (UniProt P06731); assay: enzyme activity specificity test, CEA-coated plate; pH 5.0 eluate ultraconcentrate 1:10, dilution 1:16
# [2] = biological target: CEA (carcino-embryonic antigen) (UniProt P06731); assay: enzyme activity specificity test, CEA-coated plate; pH 5.0 eluate 1:3, dilution 1:2
# [3] = biological target: CEA (carcino-embryonic antigen) (UniProt P06731); assay: enzyme activity specificity test, CEA-coated plate; pH 5.0 eluate 1:3, dilution 1:32
# [4] = biological target: CEA (carcino-embryonic antigen) (UniProt P06731); assay: enzyme activity specificity test, CEA-coated plate; pH 5.0 eluate ultrafiltrate 1:1, dilution 1:8
# [5] = biological target: CEA (carcino-embryonic antigen) (UniProt P06731); assay: enzyme activity specificity test, CEA-coated plate; pH 5.0 eluate ultraconcentrate 1:10, dilution 1:64
# [6] = biological target: CEA (carcino-embryonic antigen) (UniProt P06731); assay: enzyme activity specificity test, CEA-coated plate; pH 5.0 eluate ultrafiltrate 1:1, dilution 1:256
# [7] = biological target: CEA (carcino-embryonic antigen) (UniProt P06731); assay: enzyme activity specificity test, CEA-coated plate; pH 5.0 eluate 1:3, dilution 1:16
# [8] = biological target: CEA (carcino-embryonic antigen) (UniProt P06731); assay: enzyme activity specificity test, CEA-coated plate; pH 5.0 eluate 1:3, dilution 1:4
# [9] = biological target: CEA (carcino-embryonic antigen) (UniProt P06731); assay: enzyme activity specificity test, CEA-coated plate; pH 5.0 eluate 1:3, dilution 1:256
# [10] = biological target: CEA (carcino-embryonic antigen) (UniProt P06731); assay: enzyme activity specificity test, CEA-coated plate; pH 5.0 eluate ultraconcentrate 1:10, dilution 1:256
# [11] = biological target: CEA (carcino-embryonic antigen) (UniProt P06731); assay: enzyme activity specificity test, CEA-coated plate; pH 5.0 eluate 1:3, dilution 1:64
# [12] = biological target: CEA (carcino-embryonic antigen) (UniProt P06731); assay: enzyme activity specificity test, CEA-coated plate; disrupted cell suspension 1:3, dilution 1:32
# [13] = biological target: CEA (carcino-embryonic antigen) (UniProt P06731); assay: enzyme activity specificity test, CEA-coated plate; pH 5.0 eluate 1:3, dilution 1:128
# [14] = biological target: CEA (carcino-embryonic antigen) (UniProt P06731); assay: enzyme activity specificity test, CEA-coated plate; void volume of affinity column 1:1, dilution 1:2
# [15] = biological target: CEA (carcino-embryonic antigen) (UniProt P06731); assay: enzyme activity specificity test, CEA-coated plate; pH 5.0 eluate ultraconcentrate 1:10, dilution 1:8
# [16] = biological target: CEA (carcino-embryonic antigen) (UniProt P06731); assay: enzyme activity specificity test, CEA-coated plate; pH 5.0 eluate ultraconcentrate 1:10, dilution 1:32
# [17] = biological target: CEA (carcino-embryonic antigen) (UniProt P06731); assay: enzyme activity specificity test, CEA-coated plate; pH 5.0 eluate 1:3, dilution 1:8
# [18] = biological target: CEA (carcino-embryonic antigen) (UniProt P06731); assay: enzyme activity specificity test, CEA-coated plate; void volume of affinity column 1:1, dilution 1:64
# [19] = biological target: CEA (carcino-embryonic antigen) (UniProt P06731); assay: enzyme activity specificity test, CEA-coated plate; void volume of affinity column 1:1, dilution 1:128
# [20] = biological target: CEA (carcino-embryonic antigen) (UniProt P06731); assay: enzyme activity specificity test, CEA-coated plate; disrupted cell suspension 1:3, dilution 1:64
# [21] = biological target: CEA (carcino-embryonic antigen) (UniProt P06731); assay: enzyme activity specificity test, CEA-coated plate; void volume of affinity column 1:1, dilution 1:32
# [22] = biological target: CEA (carcino-embryonic antigen) (UniProt P06731); assay: enzyme activity specificity test, CEA-coated plate; pH 5.0 eluate ultrafiltrate 1:1, dilution 1:64
# [23] = biological target: CEA (carcino-embryonic antigen) (UniProt P06731); assay: enzyme activity specificity test, CEA-coated plate; void volume of affinity column 1:1, dilution 1:256
# [24] = biological target: CEA (carcino-embryonic antigen) (UniProt P06731); assay: enzyme activity specificity test, CEA-coated plate; disrupted cell suspension 1:3, dilution 1:256
# [25] = biological target: CEA (carcino-embryonic antigen) (UniProt P06731); assay: enzyme activity specificity test, CEA-coated plate; void volume of affinity column 1:1, dilution 1:8
# [26] = biological target: CEA (carcino-embryonic antigen) (UniProt P06731); assay: enzyme activity specificity test, CEA-coated plate; disrupted cell suspension 1:3, dilution 1:4
# [27] = biological target: CEA (carcino-embryonic antigen) (UniProt P06731); assay: enzyme activity specificity test, CEA-coated plate; pH 5.0 eluate ultrafiltrate 1:1, dilution 1:2
# [28] = biological target: CEA (carcino-embryonic antigen) (UniProt P06731); assay: enzyme activity specificity test, CEA-coated plate; pH 5.0 eluate ultrafiltrate 1:1, dilution 1:32
# [29] = biological target: CEA (carcino-embryonic antigen) (UniProt P06731); assay: enzyme activity specificity test, CEA-coated plate; pH 5.0 eluate ultraconcentrate 1:10, dilution 1:128
# [30] = biological target: CEA (carcino-embryonic antigen) (UniProt P06731); assay: enzyme activity specificity test, CEA-coated plate; pH 5.0 eluate ultraconcentrate 1:10, dilution 1:2
# [31] = biological target: CEA (carcino-embryonic antigen) (UniProt P06731); assay: enzyme activity specificity test, CEA-coated plate; disrupted cell suspension 1:3, dilution 1:128
# [32] = biological target: CEA (carcino-embryonic antigen) (UniProt P06731); assay: enzyme activity specificity test, CEA-coated plate; pH 5.0 eluate ultrafiltrate 1:1, dilution 1:16
# [33] = biological target: CEA (carcino-embryonic antigen) (UniProt P06731); assay: enzyme activity specificity test, CEA-coated plate; void volume of affinity column 1:1, dilution 1:4
# [34] = biological target: CEA (carcino-embryonic antigen) (UniProt P06731); assay: enzyme activity specificity test, CEA-coated plate; disrupted cell suspension 1:3, dilution 1:16
# [35] = biological target: CEA (carcino-embryonic antigen) (UniProt P06731); assay: enzyme activity specificity test, CEA-coated plate; disrupted cell suspension 1:3, dilution 1:2
# [36] = biological target: CEA (carcino-embryonic antigen) (UniProt P06731); assay: enzyme activity specificity test, CEA-coated plate; pH 5.0 eluate ultrafiltrate 1:1, dilution 1:128
# [37] = biological target: CEA (carcino-embryonic antigen) (UniProt P06731); assay: enzyme activity specificity test, CEA-coated plate; pH 5.0 eluate ultraconcentrate 1:10, dilution 1:4
# [38] = biological target: CEA (carcino-embryonic antigen) (UniProt P06731); assay: enzyme activity specificity test, CEA-coated plate; disrupted cell suspension 1:3, dilution 1:8
# [39] = biological target: CEA (carcino-embryonic antigen) (UniProt P06731); assay: enzyme activity specificity test, CEA-coated plate; pH 5.0 eluate ultrafiltrate 1:1, dilution 1:4
# [40] = biological target: CEA (carcino-embryonic antigen) (UniProt P06731); assay: enzyme activity specificity test, CEA-coated plate; void volume of affinity column 1:1, dilution 1:16
# UniProt P06731, sequence (P06731 35-685 limits assumed): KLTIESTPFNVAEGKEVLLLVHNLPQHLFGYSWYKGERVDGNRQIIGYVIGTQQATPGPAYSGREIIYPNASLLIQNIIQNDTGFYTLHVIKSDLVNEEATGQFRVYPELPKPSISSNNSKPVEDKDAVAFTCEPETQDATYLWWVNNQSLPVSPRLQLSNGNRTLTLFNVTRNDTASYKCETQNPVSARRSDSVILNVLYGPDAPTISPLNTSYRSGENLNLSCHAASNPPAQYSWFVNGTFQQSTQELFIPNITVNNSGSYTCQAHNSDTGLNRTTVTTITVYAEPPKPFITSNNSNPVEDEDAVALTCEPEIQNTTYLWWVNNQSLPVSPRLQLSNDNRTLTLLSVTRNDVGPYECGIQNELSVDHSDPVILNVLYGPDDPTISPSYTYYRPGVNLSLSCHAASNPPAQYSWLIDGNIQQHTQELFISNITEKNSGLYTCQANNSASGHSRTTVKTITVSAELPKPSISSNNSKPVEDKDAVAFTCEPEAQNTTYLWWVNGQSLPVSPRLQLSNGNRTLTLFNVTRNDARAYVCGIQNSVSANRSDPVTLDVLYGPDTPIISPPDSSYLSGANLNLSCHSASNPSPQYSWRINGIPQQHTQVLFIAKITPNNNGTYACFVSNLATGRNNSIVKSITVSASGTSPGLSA
binder,measurement,setting,value
B1,relative fluorescence units (FU),[1],7150 FU
same,relative fluorescence units (FU),[2],7780 FU
same,relative fluorescence units (FU),[3],1980 FU
same,relative fluorescence units (FU),[4],90.2 FU
same,relative fluorescence units (FU),[5],3620 FU
same,relative fluorescence units (FU),[6],19.4 FU
same,relative fluorescence units (FU),[7],4240 FU
same,relative fluorescence units (FU),[8],7570 FU
same,relative fluorescence units (FU),[9],114 FU
same,relative fluorescence units (FU),[10],666 FU
same,relative fluorescence units (FU),[11],816 FU
same,relative fluorescence units (FU),[12],4560 FU
same,relative fluorescence units (FU),[13],302 FU
same,relative fluorescence units (FU),[14],6550 FU
same,relative fluorescence units (FU),[15],8040 FU
same,relative fluorescence units (FU),[16],5800 FU
same,relative fluorescence units (FU),[17],6360 FU
same,relative fluorescence units (FU),[18],214 FU
same,relative fluorescence units (FU),[19],86.2 FU
same,relative fluorescence units (FU),[20],2510 FU
same,relative fluorescence units (FU),[21],525 FU
same,relative fluorescence units (FU),[22],25.8 FU
same,relative fluorescence units (FU),[23],46.3 FU
same,relative fluorescence units (FU),[24],422 FU
same,relative fluorescence units (FU),[25],3220 FU
same,relative fluorescence units (FU),[26],8150 FU
same,relative fluorescence units (FU),[27],74.7 FU
same,relative fluorescence units (FU),[28],38.8 FU
same,relative fluorescence units (FU),[29],1650 FU
same,relative fluorescence units (FU),[30],7900 FU
same,relative fluorescence units (FU),[31],1020 FU
same,relative fluorescence units (FU),[32],52.3 FU
same,relative fluorescence units (FU),[33],5230 FU
same,relative fluorescence units (FU),[34],6630 FU
same,relative fluorescence units (FU),[35],8180 FU
same,relative fluorescence units (FU),[36],23.5 FU
same,relative fluorescence units (FU),[37],8110 FU
same,relative fluorescence units (FU),[38],7530 FU
same,relative fluorescence units (FU),[39],173 FU
same,relative fluorescence units (FU),[40],1480 FU
